Source: the nanobody polyreactivity screen of Harvey et al. (2022)

Experiment: yeast display, Sf9 membrane polyspecificity reagent, FACS + sequencing; frameworks hold sequencing errors
How it was run: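 Galactose induction of a Saccharomyces cerevisiae BJ5465 synthetic nanobody display library ran 36–48 hours. The cells were then stained for 1 hour at 4 °C with 10% biotinylated, detergent-solubilized Sf9 membrane reagent, pulled down on streptavidin microbeads and FACS-sorted into low and high (top ~1%) gates on expression and reagent-binding fluorescence. Labels for polyreactivity follow the gate of origin.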

QVQLVESGGGLVQAGGSLRLSCDASGSTLVVNAMGWYRPAPGKERELVAAISDGGSTNYADSVKGRFTISRDNAMNTVYLQMNSLKPEDTADYYCAKDCETEVIDDYWGQGTQVTVSS
polyreactivity (PSR sort gate): low polyreactivity

QVQLVESGGGLVQAGGSLRLSCAASGSTFGGYGMGWYRQAPGQERELVASISGGGNTNYADSVKGRFTISRDNAKNTVYLQKNSLKPEDTAVYYCNARINSWYSTYRYYYWGQGTQVTVSS
polyreactivity (PSR sort gate): low polyreactivity

QVQLQESGGGLVQAGGSLRLSCAASGTIFTARFMGWYRQAPGKERELVATITDGGNTNHADSVKGRFTISRDNAKNTVYLQMNSLKPEDAAVYYFAAGEVDNDTLLYWGQGSQVTVSS
polyreactivity (PSR sort gate): low polyreactivity

QVQLVESGGCLVQAGGSLRLSCSSSGFIFFYNMGWYRQAPGKERDLVADISTGGSTNYADSVKGRFTISRDNAKNTVYLQMNSLKQEDTAVYYCAAVYYNVYQYEPWYDYWGQGTQVTVSS
polyreactivity (PSR sort gate): low polyreactivity

QVQIVESGGGLVQAGGSLRLSCAASGSTFDGNAMGWYRQAPGKERELVATINSDDSKNYSDSVKGSFTISRDNAKNTVYLQMNSLKPEDTAVYYCAAVVSVPELYDYWGQGTQVTVSS
polyreactivity (PSR sort gate): low polyreactivity

QVQLVESGGGLVQAGGSLRLSCAASGLTFRKYAMGWYRQAPGKERELVAGISSGGSTYYADSVKGRFTISRDNAKNTVYLQMNSLKPEDTAVYYCAAKALRTMYYWGQGTQVTVSS
polyreactivity (PSR sort gate): high polyreactivity

QVQLVDSGGGLVLAGGSLRLSCAASGRTFAYYVMGWYREAPGKERELVAAISGRGGRTNYADSVKGRFTISRDNANNTVFLQMNSLKPEDTAVYYFAADLKLGTFNYWGQGTQVTVSS
polyreactivity (PSR sort gate): high polyreactivity

HVQLVESGGGLVQAGCSLRLSCAASGSIFLRNTMGWYRQAPGKEREFVAAITKRGGTTYYADSVKGRFTMSRDNAKNTVYLQMNSLKPDDTAVYYCAKSYDNEYGYWGQGTQVTVSS
polyreactivity (PSR sort gate): high polyreactivity

QVQLVESGGGLVQAGGSLRLSCAASGISFTYNTMGWSRQAPGKESELVAAITSGGGTNYADSVKGRFTISRDNAKNTVYLQMNSLKPEDTAVYYCAKDPGTVGPIWYDYWGQGTQVTVSS
polyreactivity (PSR sort gate): low polyreactivity

QDQLVESGGGLVQAGGSLRFSCASSGRIFRSYGMGWYRQAPGKERELVARIRNRGGSTYAHSVKGRFTISRDNAKNSVYLQMNSLKPEDTAVYYCAAGAYRHSVFSYDYWGQGTQVTVSS
polyreactivity (PSR sort gate): high polyreactivity

QVQLVESGGGLVQAGGSLRLSCAASGRIFYYNAMGWSRQAPGKEWELVAAITYSGTSTYYAASVKGRFTISRDNAKYTVYLQMNSLKPEDTAVDYCNAEGDNRRDRYDYWGQGTQVTVSS
polyreactivity (PSR sort gate): low polyreactivity

QVQLVESGGGLVQAGGSLRLSCAASGLTLYFYVMGWYRQAPGKERELVAAISSTGSTYYADSVKGRFSISRDNAKNTVYLQMNSLKPEDTAVYYCAARKRGWYGYWGQGTQVTVSS
polyreactivity (PSR sort gate): high polyreactivity

QVQLVESGGGLVQAGGSLRLSCAASGYIFHLYGMGWYRQAPGKERELVARISYRGGSTYYADSVKGRFTISRDNAKNTVYLQMNSLKTEDTAVYYCAKDYYKHYYWGQGTQVTVSS
polyreactivity (PSR sort gate): high polyreactivity

QVQLVESGGRLVQAGGSLRLSSAASGRIFKKNAMGRYRQAPGKERELVAAISYRGGSTYYADSVKGRFTISRDNAKNSVYLQMNSLKPVDTAVYYCNVGSRGCWDASDYDYWGQGTQVTVSS
polyreactivity (PSR sort gate): high polyreactivity

QVQLVESGGGLVQAGGSLRLSCAASGFTFRRYAMGWYRQAPGKERELVAAISTSGGRTYYADSVKGRFTISRDNAKNTVYLQMNSLKPEDTAVYYCAARIPKQRDVRGSGMNYWGQGTQVTVSS
polyreactivity (PSR sort gate): high polyreactivity

QVQLVESGGGLVQAGGSLRLSCAASGLIFYWYTMGWYRQAPGKEREFVAAITWGGGGTYYADSVKGRFTISRDKAKNTVYLQMNSLKPEDTAVYYCAAEEQVVKAHGDYWGQGTQVTVSS
polyreactivity (PSR sort gate): low polyreactivity

QVQLVETGGGLVQAGGSLRISCAASGFIFPSYAMGWYRQAPGKERELVAAITSGGRTYYADSVKGLFTISRDNAKKTVYLQMNSLKPEDYAVYYCAAKSHSKTGTRYYYCGQGTQVTVSS
polyreactivity (PSR sort gate): high polyreactivity

QVQLVESGGGIVQAGGSLSLSCAASGNIFTAYAMGWYRQAPGKERELVATITSSGDSTYYADSVKGRFTISRDNAKNTVYLQMNRLKPEDTSVYYFATADPSASNEVYEYDYWGQGTQVTVSS
polyreactivity (PSR sort gate): low polyreactivity

QVQLVESGGGLVQAGGSLRLSCAASGFAFSYYAMGWYRQAPGKEREFVASIDWSGGSTYYADSVKGRFTISRDNAKNTVYLQMNSLKAEDTAVYYCAAELDYFPGYDYWGQGTQVTVSS
polyreactivity (PSR sort gate): low polyreactivity

QVQLVESGGGLVQAGGSLRLICAASGSTFTGYAMGWYRQAPGKERELVAGITGSGGSTYYADSVKGRFTISRDNAKNTVYLQMNSLKPEDTAVYYCAAELYDYGDLYYSEYDYWGQGTQVTVSS
polyreactivity (PSR sort gate): low polyreactivity

QVQLVESGGGLVQAGGSLRLSCAASGITFLPYAMGWYRQAPGKERELVAAISWRGGRTYYADSVKGRFTISRDNAKNTVYLQMNSLKPEDTAVYYCAAVLVRKSGITYDYWGQGTQVTVSS
polyreactivity (PSR sort gate): high polyreactivity

QVQLVESGGGLVQAGGSLRLSCAASGFTFSRYAMGWYRQAPGKERELVAAISYSGGTTYYADSVKGRFTISRDNAKNTVYLQMNSLKPEDTAVYYCNARARGQLVGHYYYWGQGTQVTVSS
polyreactivity (PSR sort gate): high polyreactivity

QVQLVETGGGLVQAGGSLRLSCAASGITFASYDMGWYRQAPGKEWELVAAISSGGDTTYADSVKGRFTLSRDNAKNTVSLQMNSLKPEDTAVYYCNKDIDFAVSAYESSPRTMYYWGQGTQVTVSS
polyreactivity (PSR sort gate): low polyreactivity

QVQLVESGGGLVQAGGSLRLSCAASGRTFGVYAMGWYRQAPGKERELVAAIRWSGGGTYYADSVKGRFTISRDNAKNTVYLQMNSLKPEDTAVYYCNAEIWTEGGYWGQGTQVTVSS
polyreactivity (PSR sort gate): low polyreactivity

QVQLVESGGGLVQAGGSLRLSCAASGSIFAVYTMGWYRQAPGKERELVAAINWSGARTYYADSVKGRFTISRDNEKNTVYLQMNSLKPEDSAVYYCAAESRLGVAYIYWGQGTQVTVSS
polyreactivity (PSR sort gate): low polyreactivity

QVQLVESGGGLVQAGGSLRLSCAASGFTFPRYAMGWYRQAPGKERELVAVITRRGGSTYYADSVKGRFTISRDNAKNTVYLQMNSLKPEDTAVYDCAASDPSNKSSRPGYSYDSDSWGQGTQVTVSS
polyreactivity (PSR sort gate): high polyreactivity

QVQLEESGGGLVQAGGSLRLSCAASGSIFDVIAMGWYSQAPGNVRVLVAAISDSGGSTYYADSVKGRFTNSRDNAKKTVYLQMNSLKPEDTAVYYCNADWSWYNYYDFDYWGLGTQVTVSS
polyreactivity (PSR sort gate): low polyreactivity

QVQLVESGGGLVQAGGSLRLSCAASGRTFYDYAMGWYRQAPGKERELVASITGGASTNYADSVKGRFTISRDNAKNTVYLQMNSLKPEDTAVYYCAGRLYRGNVWDILLGGDYWGQGTQVTVSS
polyreactivity (PSR sort gate): low polyreactivity

QVQLVESGGGLVQAGGSLRISCAASGRTFSSYAMGWYRQAPGKERELVARISSSGGRTSYADSVKGRFTISRDNAKNTVYLQMNSLKPEDTAVYYCATEWSDRNDYWGQGTQVTVSS
polyreactivity (PSR sort gate): high polyreactivity

QVQLVESGGGLVQAGGSLRLSCAASGSTFGINAMGWYRQAPGKERELVASITRRGGSTYYADSVKGRFTISRDNAKNTVYLQMHSLKPEDTAVYYCAAGNKRRFEGDYWGQGTQVTVSS
polyreactivity (PSR sort gate): high polyreactivity

QVQLVESGGGLVQAGGSLRLSCAASGSTFYINDMGWYRQAPGKERELVASISWRGGSTYADSVKGRFTISRDNAKNTDYLQMNSLKPEDTAVYYCAAEFDVYSHHWITSYDYWGQGTQVTVSS
polyreactivity (PSR sort gate): high polyreactivity

QVQLVESGGGLVQAGGSLRLSCAASGRIFWGYAMGWYRQAPGKERELVAAITSGGSTYYADSVKGRFTFSRDNAKNTVYLQMNSLKPEDTAVYYCAAYYVLKLRYGHRYYYWGQGTQVTVSS
polyreactivity (PSR sort gate): high polyreactivity

QVKLVESGGGLVQAGGSLRLSCSASGSIITHNTMVWYRQAPGKERELVASIDSGASTNYADSVKWRFTISRDNAKNSVYLLMNSLKPEDTAVYYCAADDANFRYRDDYWGQGTQVTVSS
polyreactivity (PSR sort gate): low polyreactivity

QDQLVESGGGLVQAGGSLRLSCAASGRTFDLYAMGCYRQAPGKERELVAAITKGGGSTYYADSVKGRFTISRDNAKNTVYLQMNSLKPEDTAVYYCAARKYKRIYRISSGIGYYWGQGTQVTVSS
polyreactivity (PSR sort gate): high polyreactivity

QVQLVESGGGLVQAGGSLRLSCAASGRTFGKNAMGWYRQAPGKEREFVAAITSRGGSTYYADSVKGRFTISRDYAKNTVYLQMNSLKPEDTAVYYCNREYKRPSQRTEHYYWGQGSQVTVSS
polyreactivity (PSR sort gate): low polyreactivity

QVQLVESGGGLVQAGGSLRLSCAASGLTFSPYAKGWYRQAPGKERELVASITNGGRTYYADSVKGRFTISRDNAKNTVYLQMNSLKPEDTAVYYCNAAYFGWFNTYNYWGQGTQVTVSS
polyreactivity (PSR sort gate): high polyreactivity

QVQLVESGGGLVQAGGSLRLSCAASGRTFTAYAMGWYRQAPGKERELVAAITTSGGTTYYADSVKGRFTISRDNAKNTVYLQMNSLKPEDTAVYYCAADVVVSWWLIYDYWGQGTQVTVSS
polyreactivity (PSR sort gate): low polyreactivity

QVQLVESVGVLVQEGGSLRLSSAASGGSLPRYAMGWYRQAPGKEMELVAVITRGGSTYYADSVKGRFTISRDNAKNTVYLQMIRLIPEDTAVYYFAKYRYQTGIFYYWGQGTQVTVSS
polyreactivity (PSR sort gate): high polyreactivity

QVQLVESGGGLVQAGGSLRLSCAASGLISRINAMGWYRQAPGKERELVAAISSGGSTNYADSVKGRFTISRDNAKNTVYLQMNSLKPEDTAVYYCAAGYIRKYSAFRYNYWGQGTQVTVSS
polyreactivity (PSR sort gate): high polyreactivity

QVQLVETGGGLVQAGGSLRLSCAPSGRILYGYAMGWYRQAPGKERELVASITWSGGSTYADSVKGRFTISRDNAKNTVYLQMNSLKPEDTAVYFCATRRGPKWQWLTYGYWGQGTQVTVSS
polyreactivity (PSR sort gate): low polyreactivity

QVQLVESGGGLVQAGGSLRLSCAASGLILYSYTMGRYRHAPGKERELVAVISRSGTSTYYADSVKGRFTISRDNAKNTVYLQMNSLKREDTSFYFCAALSRSGPYAYEYWGQGTQVSVSS
polyreactivity (PSR sort gate): high polyreactivity

QVQLVESGGGLVQGGGSLRFSCAASGSTFPSYARGWYRQAPGKERELVAAINSGGGTNYADSVKGRFTISRDNAKNTVYLHMNSLKPEDTAVYYCAKSRYDYTKTEGGYWGQGTQVTVSS
polyreactivity (PSR sort gate): low polyreactivity

QFQLVESGGGLVQAGGSLRLSCAASGLTIDPNAMGWYRQAPGKERELVATITQTDGSTYYADSVKGRFTISRDNAKNTVYLQMNSLKPEDTAVYYCVGLVSRGSDYWGQGTQVTVSS
polyreactivity (PSR sort gate): low polyreactivity
